# Test results as given in publication doi:10.1101/2025.10.27.684738.
# How the values were obtained:
# [1] = biological target: ANXA11 Nt (UniProt P50995 1-191); assay: MST
# [2] = biological target: T1, ANXA11 Ct (UniProt P50995 201-505); assay: MST
# T1 sequence: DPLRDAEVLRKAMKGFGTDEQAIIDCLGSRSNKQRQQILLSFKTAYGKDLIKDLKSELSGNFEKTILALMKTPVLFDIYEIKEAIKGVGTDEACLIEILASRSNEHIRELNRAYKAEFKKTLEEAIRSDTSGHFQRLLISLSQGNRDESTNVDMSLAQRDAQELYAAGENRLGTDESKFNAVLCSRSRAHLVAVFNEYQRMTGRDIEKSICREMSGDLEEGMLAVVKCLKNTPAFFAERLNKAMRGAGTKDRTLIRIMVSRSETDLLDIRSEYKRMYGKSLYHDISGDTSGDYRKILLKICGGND
# Sequence of ANXA11 Nt (P50995 1-191): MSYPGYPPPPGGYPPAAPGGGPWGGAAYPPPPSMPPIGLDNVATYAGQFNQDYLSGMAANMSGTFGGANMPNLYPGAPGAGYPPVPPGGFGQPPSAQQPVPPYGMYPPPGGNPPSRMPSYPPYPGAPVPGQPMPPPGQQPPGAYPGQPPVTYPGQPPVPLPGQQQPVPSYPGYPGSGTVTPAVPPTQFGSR
binder,measurement,setting,value
UUUUUUUUUU (ssRNA) [poly-U 10-mer RNA],Kd,[1],4.18 ± 0.8 µM
same,Kd,[2],3.55 ± 0.3 µM
